Experimental data from the supplement of paper PMC11246515.
± gives the standard deviation of the averaged measurements.

Assay: total protein half-life in vivo (active degradation + dilution); higher = more stable protein
[1] = E. coli NCM3722 delta-clpP delta-lon delta-hslV, growth: N-lim chemostat, doubling time 6 h
[2] = E. coli NCM3722 delta-clpP, growth: N-lim chemostat, doubling time 6 h
[3] = E. coli NCM3722 delta-hslV, growth: N-lim chemostat, doubling time 6 h
[4] = E. coli NCM3722 delta-smpB, growth: N-lim chemostat, doubling time 6 h
[5] = wild type E. coli NCM3722, growth: C-lim chemostat, doubling time 3 h
[6] = wild type E. coli NCM3722, growth: C-lim chemostat, doubling time 6 h
[7] = wild type E. coli NCM3722, growth: C-lim chemostat, doubling time 12 h
[8] = wild type E. coli NCM3722, growth: N-lim chemostat, doubling time 6 h
[9] = wild type E. coli NCM3722, growth: N-lim chemostat, doubling time 12 h
[10] = wild type E. coli NCM3722, growth: P-lim chemostat, doubling time 6 h
[11] = wild type E. coli NCM3722, growth: P-lim chemostat, doubling time 12 h
[12] = E. coli NCM3722 delta-lon, growth: N-lim chemostat, doubling time 6 h

| Sequence | total protein half-life in vivo [1] | total protein half-life in vivo [2] | total protein half-life in vivo [3] | total protein half-life in vivo [4] | total protein half-life in vivo [5] | total protein half-life in vivo [6] | total protein half-life in vivo [7] | total protein half-life in vivo [8] | total protein half-life in vivo [9] | total protein half-life in vivo [10] | total protein half-life in vivo [11] | total protein half-life in vivo [12] |
| --- | --- | --- | --- | --- | --- | --- | --- | --- | --- | --- | --- | --- |
| MESPLGSDLARLVRIWRALIDHRLKPLELTQTHWVTLHNIHQLPPDQSQIQLAKAIGIEQPSLVRTLDQLEEKGLISRQTCASDRRAKRIKLTEKAEPLISEMEAVINKTRAEILHGISAEELEQLITLIAKLEHNIIELQAKG [P0A8W2] | 5.958 ± 0.04 h | 5.81 ± 0.18 h | 5.88 ± 0.54 h | 5.79 ± 0.084 h | 3.38 ± 0.4 h | 5.19 ± 0.19 h | 11.38 ± 0.033 h | 5.01 ± 0.34 h | 11 ± 2.7 h | 4.64 ± 1.1 h | 9.76 ± 0.57 h |  |
| MESWLIPAAPVTVVEEIKKSRFITMLAHTDGVEAAKAFVESVRAEHPDARHHCVAWVAGAPDDSQQLGFSDDGEPAGTAGKPMLAQLMGSGVGEITAVVVRYYGGILLGTGGLVKAYGGGVNQALRQLTTQRKTPLTEYTLQCEYHQLTGIEALLGQCDGKIINSDYQAFVLLRVALPAAKVAEFSAKLADFSRGSLQLLAIEE | 5.13 h | 3.99 ± 0.14 h |  | 2.87 ± 0.15 h | 2.93 ± 0.19 h | 4.62 ± 0.11 h | 15 h | 3.48 ± 0.22 h | 4.67 ± 0.14 h | 4.78 h | 7.73 ± 0.15 h | 3.84 ± 0.059 h |
| MESYSQNSNKLDFQHEARILNGIWLITALGLVATAGLAWGAKYIEITATKYDSPPMYVAIGLLLLCMYGLSKDINKINAAIAGVIYLFLLSLVAIVVASLVPVYAIIIVFSTAGAMFLISMLAGLLFNVDPGSHRFIIMMTLTGLALVIIVNAALMSERPIWIISCLMIVLWSGIISHGRNKLLELAGKCHSEELWSPVRCAFTGALTLYYYFIGFFGILAAIAITLVWQRHTRFFH |  |  |  |  |  |  |  | > 8 h |  |  |  |  |
| METLIAISRWLAKQHVVTWCVQQEGELWCANAFYLFDAQKVAFYILTEEKTRHAQMSGPQAAVAGTVNGQPKTVALIRGVQFKGEIRRLEGEESDLARKAYNRRFPVARMLSAPVWEIRLDEIKFTDNTLGFGKKMIWLRDSGTEQA | 5.46 ± 0.32 h | 5.48 ± 0.64 h |  | 4.81 ± 0.52 h |  | 6.11 ± 0.22 h | 13.5 ± 1.2 h | 5.11 ± 0.18 h | 9.39 ± 0.75 h | 5.48 ± 1.1 h | 12.5 ± 0.68 h |  |
| METPQPDKTGMHILLKLASLVVILAGIHAAADIIVQLLLALFFAIVLNPLVTWFIRRGVQRPVAITIVVVVMLIALTALVGVLAASFNEFISMLPKFNKELTRKLFKLQEMLPFLNLHMSPERMLQRMDSEKVVTFTTALMTGLSGAMASVLLLVMTVVFMLFEVRHVPYKMRFALNNPQIHIAGLHRALKGVSHYLALKTLLSLWTGVIVWLGLELMGVQFALMWAVLAFLLNYVPNIGAVISAVPPMIQVLLFNGVYECILVGALFLVVHMVIGNILEPRMMGHRLGMSTMVVFLSLLIWGWLLGPVGMLLSVPLTSVCKIWMETTKGGSKLAILLGPGRPKSRLPG [P0AGM0] | 6.64 ± 0.097 h |  |  | 5.16 h |  | 7.02 h | 11.5 ± 0.41 h |  |  |  | 13.6 h |  |
| MEWLVKKSCCNKQDNRHVLMLCDAGGAIKMIAEVKSDFAVKVGDLLSPLQNALYCINREKLHTVKVLSASSYSPDEWERQCKVAGKTQ | 5.09 ± 0.77 h |  | 3.24 h | 4.9 h | 2.04 ± 0.53 h | 4.32 h | 7.64 ± 1.4 h |  | 4.88 h | 4.39 h | 7.16 ± 1.1 h | 3.35 h |
| MEWSLTQNKLLAFHRLMRTDKPIGALLLLWPTLWALWVATPGVPQLWILAVFVAGVWLMRAAGCVVNDYADRKFDGHVKRTANRPLPSGAVTEKEARALFVVLVLISFLLVLTLNTMTILLSIAALALAWVYPFMKRYTHLPQVVLGAAFGWSIPMAFAAVSESVPLSCWLMFLANILWAVAYDTQYAMVDRDDDVKIGIKSTAILFGQYDKLIIGILQIGVLALMAIIGELNGLGWGYYWSILVAGALFVYQQKLIANREREACFKAFMNNNYVGLVLFLGLAMSYWHF [P0AGK1] | 1.5 ± 0.18 h | 1.13 h | 1.29 h | 1.45 ± 0.17 h | 1.27 ± 0.027 h | 1.92 ± 0.27 h | 2.32 ± 0.41 h | 1.29 ± 0.2 h |  | 2.18 ± 0.52 h | 2.85 h | 0.759 h |
| MFDFSKVVDRHGTWCTQWDYVADRFGTADLLPFTISDMDFATAPCIIEALNQRLMHGVFGYSRWKNDEFLAAIAHWFSTQHYTAIDSQTVVYGPSVIYMVSELIRQWSETGEGVVIHTPAYDAFYKAIEGNQRTVMPVALEKQADGWFCDMGKLEAVLAKPECKIMLLCSPQNPTGKVWTCDELEIMADLCERHGVRVISDEIHMDMVWGEQPHIPWSNVARGDWALLTSGSKSFNIPALTGAYGIIENSSSRDAYLSALKGRDGLSSPSVLALTAHIAAYQQGAPWLDALRIYLKDNLTYIADKMNAAFPELNWQIPQSTYLAWLDLRPLNIDDNALQKALIEQEKVAIMPGYTYGEEGRGFVRLNAGCPRSKLEKGVAGLINAIRAVR | 5.24 ± 1.1 h | 4.66 ± 0.39 h | 4.58 ± 0.52 h | 4.53 ± 0.058 h | 3.15 ± 0.095 h | 5.26 ± 0.26 h | 10.2 ± 2 h | 4.39 ± 0.095 h | 7.95 ± 0.93 h | 5.78 ± 0.25 h | 11 ± 1.4 h | 5.26 ± 0.077 h |
| MFDVLMYLFETYIHTEAELRVDQDKLEQDLTDAGFEREDIYNALLWLEKLADYQEGLAEPMQLASDPLSMRIYTPEECERLDASCRGFLLFLEQIQVLNLETREMVIERVLALDNAEFELDDLKWVILMVLFNIPGCENAYQQMEELLFEVNEGMLH [P0A828] | 5.9529 ± 0.00025 h | 0.182 h |  | 0.365 h |  |  | 0.0972 h | 1.05 h |  |  |  | 0.569 h |
